Results from the DeepSol protein solubility set.

Assay: soluble on expression in E. coli; label from the status in PepcDB or PDB records
With “MAHHHHHHMNRENLEELKILNLKNDKQPIYNFRCKHCNYVLFNDNEIIKHDFKISKIKKNYGNSCTSIFIEKKEWILTENKMKGVLNCPNCNIKLGKWSWTGICCSCGYLQIPAFMINSSNVDRMNISKTV” the “soluble on expression in E. coli” value was “soluble”. For “MAHHHHHHMNRSASLPSASPSLSTMRTITVALCASSKKHQQSFDALREAGKLHNERLLLMRQHSASRQAGCGDVSGEAGEASTAAPQEGCASGSRGMSSHSRSRRTSRATSEVLAHPARSRSTTEGSLSCAALSNCLFRFLSLNYDAQRHRMVLCIDGDIKEVHQSSAAAFAQDGSKANAQQSPSVDEHAGTDSTVRGEGEPSQSALMDEVDVVLHKVATFGTPVAIRALHQWYNGAQKRRSRQRRAPLIVVDPLEKVQLLMTRSMLCKLLNNVGDDGQPIALIPRTFVWDCPSDAACRHARRTNGSSAATPLGIHSFTSMEEQEARANGTAAEHWWIAKPDESTGAAFTHHLVMWLTRDADVSVPTAVKAALPTEACRFILQELYVYALPVVLKVYCVGSHISVKVNPTVSLLNYLWEHTRGSTLADVPVAMDSQDKAFFSTVASVSTSRSQPTLSAMTSSTDDDALPATSPTMNATNAAGAPPSPTELPQGTSSESASAEQSLIAWESMVVPVDYWNAFLAPGTPAYTAISKLAQDLSGDAGVGLSLYGFDLVLVPQYLAHTYQRKGARGIGRTEGATVRYEGVAPSLSKVAHRSADTAKPVQRIPASHSMRKLPGAGASAPPSPVSQLFRASDMFDLASGAPTSLLLDSIPVVIDVNYFPGYKGVAEVNQHMLELIALKSMHLQDGSSNRAWHADTATGAEAKKRRCSMM”, the “soluble on expression in E. coli” value was “not soluble”. With “MAHHHHHHMNYAAVINGPFSSNNGNNHYSRLGYTPNGYGPQPNTTEQNPQMVPYQTFNSAAGQPVNVYQQIPPTSASRDPRTNIHIGSKLFVGQVPAMTTEEQLRPVFEPYGELLEVKIMRDPLGRSKGSAWVRYETNEMAMNAINALHEKHTVPPQTNPLRVQFATPNSVRHQQLQARYAVELKVPMNQYNFGGQMGGGTQQSGMVMLRSGASPNVVPPISANVGGRYMSAPFGGGPMESSSIMSGPYTSSANCFDGVNSSGNRRDLYSPLEQPQGTAPQLYQQQQQQQRGGFSSPVVTPPSVYNQASSTRQPTARNNNTKSGGGISMGSFESGHGMVNPNSNGAPTMANEMSTLDAGIALWEARNNNGLQGQEPREAAARVRSGERKEE” the “soluble on expression in E. coli” value was “not soluble”. For “MAHHHHHHMPGSELISGGWFREENDQWPGQAMSLRVEKVLYDAPTKFQHLTIFESDPKGPWGTVMALDGCIQVTDYDEFVYHEVLGHTSLCSHPKPERVLIIGGGDGGVLREVLRHGTVEHCDLVDIDGEVMEQSKQHFPQISRSLADPRATVRVGDGLAFVRQTPDNTYDVVIIDTTDPAGPASKLFGEAFYKDVLRILKPDGICCNQGESIWLDLELIEKMSRFIRETGFASVQYALMHVPTYPCGSIGTLVCSKKAGVDVTKPLRPVEDMPFAKDLKYYDSEMHKASFALPRFARHINNSE”, the “soluble on expression in E. coli” value was “soluble”. With “MAHHHHHHMPMILNEGWNIIQINLQEYTEKAFRTKYMETMDIQINASIRIRCIYFCDKLYNNDELKDEYKIFSKKKEKIKYTPPQCLNKPLKKMTIKSIITEGVSKGGENLPTEVEANKATTENEILEDSSTSGNSKKTDVEPTSQKNLQSIDMTEGIELYEESTDDPFFDEKNDGEGTPLAQVIGGEELLVGGEESTEVANNMTMDLTENTVTGTMNGPMKDQQDAEEAEHLAHIKTLEMDDTNVLYEDVNYETYNNDDH” the “soluble on expression in E. coli” value was “soluble”. For “MAHHHHHHMPPKGFKSNVSPEEAIAARKEKVELLSQQCAAVEKMLSICTDQGLRLNAEIAELERRIAETEVLTEQASRDLDVTVKIVTSYATSNLDQLQQRRLNMEKTAHEAEAENEALRAKIAELTGRREAEIEQWEARVEEQQALMNQKALDFGMQLKETLARRYATV”, the “soluble on expression in E. coli” value was “not soluble”. For “MAHHHHHHMPPKRYPNRLLVLCASINDVTAWPFWKFLQMKKIRGVTDMALLAFNSDGGSFEARIDGDKYQLKNYAKVRGYQHDMFESFVHRWHDPGRSYFVYGGHGMGDYVELEQNRVIAAGARARRRLRHACLRSSAL”, the “soluble on expression in E. coli” value was “not soluble”. With “MAHHHHHHMPPPLRSKAESVQREEVCQMVEPKRSMSVRDTLYGQLEFPPVIRILTNSPVVQRLRDLKQLGNSFYVYPGATHSRFEHSLGVCYLGMELYRSIVDGHREEHRDFGVPEIANLTREAAQKDMHCIGIAGLCHDLGHGPLSHLFESFVRSSARPEEVQLRKWSHEQASIMLLRKMWLENETELAELGFTESDLRYVELLINGLAPGKAWPDNVGRPKWARFTTEIIANKRSGLDVDKIDYIQRDSVACLGTPTFVSMSRLFQGARVVVGDNDETSIGYPDKLDGVIEEIFLARSHLHRIVYQHRVTKVIDLMTLDALRAAGDVFEVSNGKDGVMPLRSCVLHPDFYVHASDWIVLAILHGSNRTMAESWGSGASAEHRREKLAEACRILQRIHSRHLYTTIGSYRHSEQTLINAGRLNSVEGSSQEVKREVMIHELLSDIEVTNLDLSVKLREWSRQHNGMTAMEILQAEITQTAGDMDKKHNPVSATYFFNPRQSTHCRVEPHFSCNVTTTLFVKTGPVSSLVVVCRMPLTPQEKESLRVSFTSVADRLGKTDASSFSCTPMSQRGRAAESSQQAASVARDESAATPNHSLAGGERLTSSVSGGYPAAKRLRLDLDTQRSRRDDFDVDQSSEGVLQNDATTSSLELVTAAGYGQVGEKGQDDDDGEETDILSFS” the “soluble on expression in E. coli” value was “not soluble”. For “MAHHHHHHMPPPPPAPPPPPPPPPPPKATEGNSSSTVGGAASALFAEIRQGGDNITSRLRHVTDDQKAYKQNIQHGAVDFSDLDAKKAEAEAKRQQKQKQPETTAAEEPVTRLEGDKRWVVKHHKGTPSEPCKVTLEDVNMRHAVHIHGCDNTFVEVKGKVNTVSVVSCNKAQVILESVVSALEVLKSDSVDVTVRRFVPTAMVEKSTSVNLFLMDVEEAPNTEIVTACSSAVNVNFPTVEDPTDILERPLPEQFVSRIVRDNRGKYKIETKPNEVA”, the “soluble on expression in E. coli” value was “soluble”. In the case of “MAHHHHHHMPPQRQCSHCEKEKAVLKRPRNGKLLCQRCFFNLFEAEVHETIMKEKLFKPGDIVACGASGGKDSTVLIHLMKLLNEQHEYGIQLLLLSIDEGIAGYRDDSLKTVHRNAEVYNLPLRVLSYKELYGWTMDEVVKVTGLRSSCTYCGVFRRQALDRGAAMLGATKVVTGHNADDLAETILMNILRGDLPRLSRCTSAITSGESLLPRVKPLKYAYEKEIVLYAHFKKLDYFTTECTYSKEAFRSEARTLLKNIEILQPRCILDTIRTGEQLRVKEQECATENPPSACTRCGYVTSQSLCRACVLLQGLNMNGPAVCVREQPQPQQQQQQQNVEVEGQ”, the “soluble on expression in E. coli” value is reported as “not soluble”. With “MAHHHHHHMPTEADLEKIRRERAARYQQLSEAEKPRVEPCPHCHELPYKKEVCPETGIFHNLERHTIVGGAVVQSNIVRSSELMEAIDRSRIRWVESRTQMVRADAVSLNLFQSFVRQLDWSLQRYGILYGKYDASLNLIEVHAIYEPEQHGDAYTFHYLPDKRLPNVDRIAALLGLRRVGAVCTHPPRDIEEMVLSSREILLCAREQSRFGDECVLLTMSPSLTTGRIECQAWQTSPQAVHFYRLGVLREKSDDYSDLESAKYVHSSIPLEVAQQETDEKGHPRVVTMAPSHDIDTRWFTSYVAVQQFESPVVRNLFMRVSRPGMEPPAMINLRNYMEDPKRRKVPLIEKLADFHVLIFLAESVFSVADDMPVIIGAITKQRPAEDAMHYGEVLKLYLEQ” the “soluble on expression in E. coli” value was “soluble”. In the case of “MAHHHHHHMPTEAHGWAALSAKSKLEPFAFQRRDVGPDDVVIAIAYCGVCHSDVHQARDEWDGSTFPMVPGHEIVGHVTKVGSEVTKYKAGDRVGVGCMVDSCMKCRQCERGLEQYCVNGASFTYNSTQQDKKTPTFGGYSDHVVVREHFVVSIPDNLDLCAAAPLLCAGVTTFSPLRYWGVKKGTRVGVVGLGGLGHMAVKLANAMGAEVTVFTRSSNKVEEAENLGAHHVVNTNNEQEMNSIQGTLDVIVDTVGMSHDLRPYMMTLDIDGKLALVGMPEHAHPPLDPRRIIASRQCVGGSNIAGMPETQELLNFCGEHNITATVEKIGIEYINEAYERILASDVRYRFVIDMASLKKE”, the “soluble on expression in E. coli” value is reported as “soluble”. With “MAHHHHHHMQRPTTARYRGRRESSAASRKLAKKPHSLMDELPPCPPSPYKWKQHRQHDGHHISVTAAFIRGRRNMRVGAAAISAIAASPFPVDGATKAAKSSPAFPMRALVVAGTHDSDAVEGNNDDEAIFELFFREAQLHYHISAEENMRNHLLAGEEVAFTNLMIEALQARAELLAGDEAAELVIRDAQKRAQERQAMMKEIEKTVALRLHDERMAQLLAMEFEALLPAHGAGCERILREEAADLGEVFRWHKENRPLGAGCFIEAPVEDSRLTDARRGTGAAKFLESRLALAKGSRRASCARSSRVYLAQLLQKGTSSRCSAAALGPLAVAAGEAPASLLDGTLPVMDEALFQEEGRARLQAAKDQRYLALRGLRAVSDIRQAAAAAREKVLAEEAMCWMQIARLEVDGIYAAQEATRERKKREASADAATTHRAAQKKEVKERLLRQRGRPVPEPDNSAGGDARVQPRISGKSTEEGAQPPKDQAAITEAGALEQPSPRSSSSTVPDNSPLCGALAEGASTTAEANVDAVDELAYLRFVTGEITDPDACKQLSALVSSEVDEEVEKAV” the “soluble on expression in E. coli” value was “soluble”. In the case of “MAHHHHHHMRFLKTLFSLNCLASVGFYKKFACKNLFFENSFIRKDLHTYFIDKRKYFHLNKKDICTNTIIIPFYKDNYSYIFYDDKEEGIVVDPADYNIINDISKKENIKIKHVLCTHKHSDHNNGNQYYYEKNINVYGIKEYDNKYINQDISNLTHFQINNFKINIFLSNFHSKNQVSYLIENDNNKSKKNIFFTGDFLFISGIGKNFEQDNEDLYNSINKLKLLDKQNIYIFCGHEYTLDNLKFALTVDSTNKNLLSFYDHVVNSNKNYPTVPTLLEHEYLYNPFLRCDQNDVRKSIDLYAKKKNIKIQQESDYIVILRLMKDNFKAS”, the “soluble on expression in E. coli” value is reported as “not soluble”. For “MAHHHHHHMRGWTAIRSPQLPTLHHRTVVEHTRPQKKKAKKKHGGRVRLCVWRCRCLPALAAKKTKQEGKKCVLRPTSPRRTPTRHGSLSAPFVAAPPHACSRRGAQGRRHERVGGCASGAVGRETHGTPHRKSAEETIKRGKSRKKKKTSIVIAPKSKKEGMWGVRELKRTN”, the “soluble on expression in E. coli” value was “soluble”. With “MAHHHHHHMRKEEMNRNFQNASCKEDNYIKAWLKQTENPEFYKNLNDLDDQSYTNEFVKVVDFNNFNSNFINNMMEEPFGDEFSKQKKRKAYSLFYSNEIGPNNEENYDLKNIYTSFDDSDVKYLKSLDKTPSGNMKDRVKGRYKDEHMSIKKLKRENICNENNEPIFPNNIMMDNSPYYKFRHSNKKPSYGSESTNEFFNNYDFETPIKILSSKKKSYDFKNRKDNSTNTTKENSSRENVSSNNSETKRTINFSNKTDDFNDIPFNSDNEYISSPEYMDHEQNTKYINKKQREVNFLGQKLEYKVVGNVINCSKNHPQFTLF” the “soluble on expression in E. coli” value was “not soluble”. In the case of “MAHHHHHHMRNSFFPMLCEKQSTPELEAMPLYLPDTVVLQLHRHDGEAEFADYMDANSLTFVALGDAERPALCGIDATAQLHYEGAQRTLVSAAGIVSGIRRRRLRVPFGMSELSELLRRAYNTEKGNRNNSLTGSTETVLLTHLFSDAVWAEESFHCLSTTRRVGNILGSTGIGSATRDLAVERWRLDQDIMELRDELMIARTVYDYRHCGYESNRSISGMEEEGMKRVNAIQSNREEERKWQLSVFCERAKHEAEKMIKELEQRGGATLDELQKTLEAKKRESSALQADRENRIWEYEHTLEKIRTRKQDEESASERLRQAMQQLEQELSLRQSAIETREQQLEMVQLDGARGREAIMRERHSIEAVSPAEAVDPSD”, the “soluble on expression in E. coli” value is reported as “not soluble”.
